Results on nine molecules are retold here after patent publication US20250129150A1 (APOGEE THERAPEUTICS, published 2025).

Several values for one entry are separate records, joined by “and”; a condition that tells them apart may be missing. Equal values may be shown once.

What is called Kd is the equilibrium constant for the complex coming apart. In general, IC50 refers to the concentration that gives 50% inhibition.

For experiment [1], the target named is T1, hIL-13 (human, UniProt P35225 35-146, limits assumed).
T1 construct: IL-13 as used in the cell assays, the ELISA, the binning study and HDX-MS/XL-MS; also called human IL-13; Hu IL-13
T1 sequence (P35225 other isoform, or with tags, fused parts or gaps limits assumed): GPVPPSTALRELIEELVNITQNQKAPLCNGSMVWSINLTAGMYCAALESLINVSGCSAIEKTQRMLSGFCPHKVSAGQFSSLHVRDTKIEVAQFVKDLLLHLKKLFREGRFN
Briefly: ELISA.

Experiment [2] has as its target T1, hIL-13. As to the kind of experiment: cell-based or functional assay.
The target of experiment [3] is T1, hIL-13. As to the kind of experiment: cell-based or functional assay. This is another data set of the same source.
The target in experiment [4] is T1, hIL-13. As to the kind of experiment: cell-based or functional assay. The source holds these as a separate data set.
The target of experiment [5] is T1, hIL-13. As to the kind of experiment: cell-based or functional assay. The source holds these as a separate data set.
Experiment [6] concerns the target T1, hIL-13. As to the kind of experiment: cell-based or functional assay. The source holds these as a separate data set.
Experiment [7] has as its target T2, Recombinant Human IL-13 Protein, His Tag (Acro Cat. IL3-H52H4) (human, UniProt P35225 35-146).
T2 construct: Bought protein; also called Hu IL-13; not shown: His Tag
As to the kind of experiment: SPR (Biacore 8K), mAb captured on Protein G chip, IL-13 as analyte. Here is the method: (§1) Samples were injected in a multi-cycle manner over freshly captured mAb, by regenerating the capture surfaces with injection of glycine pH 1.5 for 30 sec at a flow rate of 30 μL/min. The data was processed and analyzed with Biacore Insight Evaluation Software Version 2.0.15.12933 (GE Healthcare) as follows. […] The responses from the two buffer blank injections were then subtracted from the reference subtracted data (2-1) to yield double-referenced data, which were fit to an 1:1 binding model to determine the apparent association (ka) and dissociation rate constants (kd). Their ratio provided the apparent equilibrium dissociation constant or affinity constant (KD=kd/ka).
Background: In SPR one partner is held on a chip, and binding of the other changes the refractive index at the surface.

Experiment [8] addresses T3, Recombinant Cynomolgus IL-13 Protein, His Tag (SINO BIOLOGICAL, Cat. 11057-C07H) (cynomolgus monkey, UniProt Q5I6E4 19-132 (Macaca thibetana entry)).
T3 construct: also called Cyno IL-13; cynomolgus monkey IL-13
T3 chain: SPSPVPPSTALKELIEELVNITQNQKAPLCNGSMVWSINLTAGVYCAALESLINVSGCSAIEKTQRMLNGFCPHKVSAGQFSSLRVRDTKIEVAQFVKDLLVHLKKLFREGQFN
Described as above. Here is the method:
as §1

The target in experiment [9] is biotinylated hIL-13 (human, UniProt P35225 35-146, limits assumed, biotinylated (site not stated)). Briefly: FACS; blockade of biotinylated hIL-13 (0.05 ug/mL) binding to HEK293 cells expressing hIL-13Rα1/hIL-4Rα. Here is the method:
Briefly, HEK293 previously transduced to stably express both hIL-13Rα and hIL-4Rα were cultured and harvested. Cells were seeded at 200,000 cells in 100 uL per well. Cells were washed and the supernatant was discarded. […] The cells were stained in this mixture at 4° C. for 1 hour. […] Cells were incubated at 4° C. for 1 hour, protected from light. Cells were then washed and the median fluorescence intensity (MFI) of cells in each well were recorded by FACS using a BD FACSCanto II. Subsequent data were analyzed using GraphPad Prism.
(A flow cytometer gives signals particle by particle.)

The target of experiment [10] is T1, hIL-13. As to the kind of experiment: cell-based or functional assay. This is another data set of the same source.

T2 sequence (P35225 other isoform, or with tags, fused parts or gaps limits assumed): as the sequence (P35225 other isoform, or with tags, fused parts or gaps limits assumed) above
Sequence of biotinylated hIL-13 (P35225 other isoform, or with tags, fused parts or gaps limits assumed): as the sequence (P35225 other isoform, or with tags, fused parts or gaps limits assumed) above

B1: Construct 141 (antibody, human IgG1, kappa, L234A L235A)
heavy: EVQLQESGPGLVKPSETLSLTCTVSGFSLNAYSVNWIRQPPGKGLEWLGMIWGDGKIVYNSALKSRLTISKDSSKNQVSLKLSSVTAADTAVYYCAGDGYYPYAMDNWGQGTTVTVSSASTKGPSVFPLAPSSKSTSGGTAALGCLVKDYFPEPVTVSWNSGALTSGVHTFPAVLQSSGLYSLSSVVTVPSSSLGTQTYICNVNHKPSNTKVDKKVEPKSCDKTHTCPPCPAPEAAGGPSVFLFPPKPKDTLYITREPEVTCVVVDVSHEDPEVKFNWYVDGVEVHNAKTKPREEQYNSTYRVVSVLTVLHQDWLNGKEYKCKVSNKALPAPIEKTISKAKGQPREPQVYTLPPSRDELTKNQVSLTCLVKGFYPSDIAVEWESNGQPENNYKTTPPVLDSDGSFFLYSKLTVDKSRWQQGNVFSCSVMHEALHNHYTQKSLSLSPG
light: DIQLTQSPSSLSASVGDRVTITCRASKSVDSYGNSFMHWYQQKPGKAPKLLIYLASELESGVPSRFSGSGSGTDFTLTISSLQPEDFATYYCQQNNEDPRTFGGGTKVEIKRTVAAPSVFIFPPSDEQLKSGTASVVCLLNNFYPREAKVQWKVDNALQSGNSQESVTEQDSKDSTYSLSSTLTLSKADYEKHKVYACEVTHQGLSSPVTKSFNRGEC
notes: also called HC1; LC6_m8
B1 yielded a Kd in experiment [1] of 0.025 nM. For the same molecule, in experiment [2], the “pSTAT6 Inhibition IC50 (HT-29 cells)” value stood at 0.25 nM. For the same molecule, the “TARC Inhibition IC50 (A549 cells)” value in [3] stood at 0.73 nM. Also, in [4], the “TF-1 Proliferation Inhibition IC50” value was 0.19 nM. Also, in experiment [5], the “CD23 Expression Inhibition IC50 (human PBMCs)” value was found to be 0.86 nM and the “pSTAT6 Inhibition IC50 (human PBMCs)” value came out at 0.41 nM. Moreover, in experiment [6], the “CCL2 Secretion IC50 (HaCaT cells)” value was found to be 0.075 nM, the “CCL26 Secretion IC50 (HaCaT cells)” value was found to be 0.055 nM and the “NTRK1 Expression IC50 (HaCaT cells)” value stood at 0.054 nM. Further, the Kd in experiment [7] was determined as 0.107 nM. Besides, in experiment [8], the Kd was determined as 0.329 nM. Moreover, in experiment [9], the IC50 amounted to 0.81 nM.

B2: Construct 137 (antibody, human IgG1, kappa, L234A L235A)
heavy: EVQLLESGGGLVQPGGSLRLSCAASGFSLNAYSVNWVRQAPGKGLEWLGMIWGDGKIVYNSALKSRLTISKDSSKNTVYLQMNSLRAEDTAVYYCAGDGYYPYAMDNWGQGTTVTVSSASTKGPSVFPLAPSSKSTSGGTAALGCLVKDYFPEPVTVSWNSGALTSGVHTFPAVLQSSGLYSLSSVVTVPSSSLGTQTYICNVNHKPSNTKVDKKVEPKSCDKTHTCPPCPAPEAAGGPSVFLFPPKPKDTLYITREPEVTCVVVDVSHEDPEVKFNWYVDGVEVHNAKTKPREEQYNSTYRVVSVLTVLHQDWLNGKEYKCKVSNKALPAPIEKTISKAKGQPREPQVYTLPPSRDELTKNQVSLTCLVKGFYPSDIAVEWESNGQPENNYKTTPPVLDSDGSFFLYSKLTVDKSRWQQGNVFSCSVMHEALHNHYTQKSLSLSPG
light: DIQLTQSPSSLSASVGDRVTITCRASKSVDSYGNSFMHWYQQKPGKAPKLLIYLASELESGVPSRFSGSGSGTDFTLTISSLQPEDFATYYCQQNNEDPRTFGGGTKVEIKRTVAAPSVFIFPPSDEQLKSGTASVVCLLNNFYPREAKVQWKVDNALQSGNSQESVTEQDSKDSTYSLSSTLTLSKADYEKHKVYACEVTHQGLSSPVTKSFNRGEC
notes: also called HC5; LC6_m8
Take B2: the results for the Kd in experiment [1], in [7] and in experiment [8] were 0.026 nM, 0.0421 nM and 0.246 nM, respectively. The “pSTAT6 Inhibition IC50 (HT-29 cells)” value in experiment [2] was 0.33 nM. Further, the “TARC Inhibition IC50 (A549 cells)” value in experiment [3] was 0.87 nM. Besides, the “TF-1 Proliferation Inhibition IC50” value in experiment [4] was found to be 0.16 nM. The “CD23 Expression Inhibition IC50 (human PBMCs)” value in experiment [5] was 1.01 nM. Moreover, the “pSTAT6 Inhibition IC50 (human PBMCs)” value in experiment [5] is 0.44 nM. Moreover, the half-maximal inhibitory concentration (IC50) in [9] stood at 0.89 nM.

B3: Construct 98 (antibody, human IgG1, kappa)
heavy: EVQLLESGGGLVQPGGSLRLSCAASGFSLNAYSVNWVRQAPGKGLEWLGMIWGDGKIVYNSALKSRLTISKDSSKNTVYLQMNSLRAEDTAVYYCAGDGYYPYAMDNWGQGTTVTVSSASTKGPSVFPLAPSSKSTSGGTAALGCLVKDYFPEPVTVSWNSGALTSGVHTFPAVLQSSGLYSLSSVVTVPSSSLGTQTYICNVNHKPSNTKVDKKVEPKSCDKTHTCPPCPAPELAGAPSVFLFPPKPKDTLYITREPEVTCVVVDVSHEDPEVKFNWYVDGVEVHNAKTKPREEQYNSTYRVVSVLTVLHQDWLNGKEYKCKVSNKALPAPIEKTISKAKGQPREPQVYTLPPSRDELTKNQVSLTCLVKGFYPSDIAVEWESNGQPENNYKTTPPVLDSDGSFFLYSKLTVDKSRWQQGNVFSCSVMHEALHNHYTQKSLSLSPG
light: DIQLTQSPSSLSASVGDRVTITCRASKSVDSYGNSFMHWYQQKPGKAPKLLIYLASELESGVPSRFSGSGSGTDFTLTISSLQPEDFATYYCQQNNEDPRTFGGGTKVEIKRTVAAPSVFIFPPSDEQLKSGTASVVCLLNNFYPREAKVQWKVDNALQSGNSQESVTEQDSKDSTYSLSSTLTLSKADYEKHKVYACEVTHQGLSSPVTKSFNRGEC
For B3, the “TARC Release IC50 (A549 cells)” value in [10] stood at 0.9 nM.

B4: Construct 19 (antibody, human IgG1, kappa)
heavy: EVQLLESGGGLVQPGGSLRLSCAASGFSLNAYSVNWVRQAPGKGLEWLGMIWGDGKIVYNSALKSRLTISKDSSKNTVYLQMNSLRAEDTAVYYCAGDGYYPYAMDNWGQGTTVTVSSASTKGPSVFPLAPSSKSTSGGTAALGCLVKDYFPEPVTVSWNSGALTSGVHTFPAVLQSSGLYSLSSVVTVPSSSLGTQTYICNVNHKPSNTKVDKKVEPKSCDKTHTCPPCPAPELAGAPSVFLFPPKPKDTLYITREPEVTCVVVDVSHEDPEVKFNWYVDGVEVHNAKTKPREEQYNSTYRVVSVLTVLHQDWLNGKEYKCKVSNKALPAPIEKTISKAKGQPREPQVYTLPPSRDELTKNQVSLTCLVKGFYPSDIAVEWESNGQPENNYKTTPPVLDSDGSFFLYSKLTVDKSRWQQGNVFSCSVMHEALHNHYTQKSLSLSPG
light: DIQLTQSPSSLSASVGDRVTITCRASKSVDSYGNSFMHWYQQKPGKAPKLLIYLASNLESGVPSRFSGSGSGTDFTLTISSLQPEDFATYYCQQNNEDPRTFGGGTKVEIKRTVAAPSVFIFPPSDEQLKSGTASVVCLLNNFYPREAKVQWKVDNALQSGNSQESVTEQDSKDSTYSLSSTLTLSKADYEKHKVYACEVTHQGLSSPVTKSFNRGEC
On to B4, for which the “TARC Release IC50 (A549 cells)” value in experiment [10] was 1.1 nM and 1 nM.

B5: Construct 96 (antibody, human IgG1, kappa, V domains shown)
VH: EVQLLESGGGLVQPGGSLRLSCAASGFSLNAYSVNWVRQAPGKGLEWLGMIWGDGKIVYNSALKSRLTISKDSSKNTVYLQMNSLRAEDTAVYYCAGDGYYPYAMDNWGQGTTVTVSS
VL: DIQLTQSPSSLSASVGDRVTITCRASKSVDSYGNSFMHWYQQKPGKAPKLLIYLASDLESGVPSRFSGSGSGTDFTLTISSLQPEDFATYYCQQNNEDPRTFGGGTKVEIKR
As to B5, the “TARC Release IC50 (A549 cells)” value in experiment [10] is 1 nM.

B6: Construct 108 (antibody, human IgG1, kappa, V domains shown)
VH: EVQLLESGGGLVQPGGSLRLSCAASGFSLDAYSVNWVRQAPGKGLEWLGMIWGDGKIVYNSALKSRLTISKDSSKNTVYLQMNSLRAEDTAVYYCAGDGYYPYAMDNWGQGTTVTVSS
VL: DIQLTQSPSSLSASVGDRVTITCRASKSVDSYGNSFMHWYQQKPGKAPKLLIYLASNLESGVPSRFSGSGSGTDFTLTISSLQPEDFATYYCQQNNEDPRTFGGGTKVEIKR
For B6, the “TARC Release IC50 (A549 cells)” value in experiment [10] turned out to be 1 nM.

B7: Construct 114 (antibody, human IgG1, kappa, V domains shown)
VH: EVQLLESGGGLVQPGGSLRLSCAASGFSLNQYSVNWVRQAPGKGLEWLGMIWGDGKIVYNSALKSRLTISKDSSKNTVYLQMNSLRAEDTAVYYCAGDGYYPYAMDNWGQGTTVTVSS
VL: DIQLTQSPSSLSASVGDRVTITCRASKSVDSYGNSFMHWYQQKPGKAPKLLIYLASNLESGVPSRFSGSGSGTDFTLTISSLQPEDFATYYCQQNNEDPRTFGGGTKVEIKR
As for B7, the “TARC Release IC50 (A549 cells)” value in [10] stood at 1.1 nM.

B8: Construct 107 (antibody, human IgG1, kappa, V domains shown)
VH: EVQLLESGGGLVQPGGSLRLSCAASGFSLHAYSVNWVRQAPGKGLEWLGMIWGDGKIVYNSALKSRLTISKDSSKNTVYLQMNSLRAEDTAVYYCAGDGYYPYAMDNWGQGTTVTVSS
VL: DIQLTQSPSSLSASVGDRVTITCRASKSVDSYGNSFMHWYQQKPGKAPKLLIYLASNLESGVPSRFSGSGSGTDFTLTISSLQPEDFATYYCQQNNEDPRTFGGGTKVEIKR
In the case of B8, the “TARC Release IC50 (A549 cells)” value in experiment [10] is 1.3 nM.

B9: Construct 110 (antibody, human IgG1, kappa, V domains shown)
VH: EVQLLESGGGLVQPGGSLRLSCAASGFSLSAYSVNWVRQAPGKGLEWLGMIWGDGKIVYNSALKSRLTISKDSSKNTVYLQMNSLRAEDTAVYYCAGDGYYPYAMDNWGQGTTVTVSS
VL: DIQLTQSPSSLSASVGDRVTITCRASKSVDSYGNSFMHWYQQKPGKAPKLLIYLASNLESGVPSRFSGSGSGTDFTLTISSLQPEDFATYYCQQNNEDPRTFGGGTKVEIKR
Take B9: the “TARC Release IC50 (A549 cells)” value in experiment [10] amounted to 1 nM.
